The chains are these.
T1: mouse HRt (hairless protein aa 490-1182) (Mus musculus, UniProt Q61645)
T1 construct: HR cDNA corresponding to the C-terminal half of HR protein (aa residues 490 to 1182, hereinafter HRt); expressed in transfected cells; host or cells: Saccharomyces cerevisiae PJ69-2A transformed with BD-HRt plasmid, mated with Y187 carrying the human brain cDNA library in pACT2
T1 sequence (Q61645 490-1182): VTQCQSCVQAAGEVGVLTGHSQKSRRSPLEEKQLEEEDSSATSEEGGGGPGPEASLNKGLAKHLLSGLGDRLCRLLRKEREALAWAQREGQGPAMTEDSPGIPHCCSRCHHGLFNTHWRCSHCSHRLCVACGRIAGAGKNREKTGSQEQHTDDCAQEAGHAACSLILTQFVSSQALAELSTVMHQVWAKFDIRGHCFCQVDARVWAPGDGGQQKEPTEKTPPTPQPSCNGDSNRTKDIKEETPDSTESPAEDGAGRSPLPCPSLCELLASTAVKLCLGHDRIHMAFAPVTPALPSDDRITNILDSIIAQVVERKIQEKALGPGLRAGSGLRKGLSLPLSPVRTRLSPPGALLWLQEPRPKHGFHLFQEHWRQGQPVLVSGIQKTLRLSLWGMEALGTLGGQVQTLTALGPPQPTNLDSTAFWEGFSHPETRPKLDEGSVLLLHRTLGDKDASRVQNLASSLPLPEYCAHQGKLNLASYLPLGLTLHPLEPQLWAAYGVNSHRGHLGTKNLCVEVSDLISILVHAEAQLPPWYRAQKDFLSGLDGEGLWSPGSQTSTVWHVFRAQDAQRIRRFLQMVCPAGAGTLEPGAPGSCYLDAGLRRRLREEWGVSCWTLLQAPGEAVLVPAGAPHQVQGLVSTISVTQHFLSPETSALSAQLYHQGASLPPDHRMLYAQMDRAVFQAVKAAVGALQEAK

B1: Human hypothalamus protein HSMNP1: human HRt interacting partner, GenBank AF220191, SEQ ID NO:30/31 (protein, listed as Homo sapiens)
chain: DRRFSRSAIPEQIISSTLSSPSSNAPDPCAKETVLSALKEKKKKRTVEEEDQIFLDGQENKRSCLVDGLTDASSAFKVPRPGPDTLQFTVDVFHFANDSRNMIYITCHLKVTLAEQDPDELNKACSFSKPSNSWFPVEGPADICQCCNKGDCGTPSHSRRQPRVVSQWSTSASRNRRHVTEEADVTVGATDLPGQEW
B2: Human alpha enolase: human HRt interacting partner, GenBank M14328, SEQ ID NO:32/33 (protein, listed as Homo sapiens)
chain: DGEPCFSCLYGNGPHPPAPQPSSRFNDAPAADKEPSVVQFCEFVSAPEVSRWAGPIIDVLLDYVGNVQLCSRLKEHIDSFEDWAVIKEKAEPPRPLAHLCRLRVRKAIGKYRIKLLDTLPLPGRLIRYLKYENTQ
B3: Human POM-ZP3: human HRt interacting partner, GenBank U10099, SEQ ID NO:36/37 (protein, listed as Homo sapiens)
chain: LEQKLALAERIRGHVLSLALQMYGCRVIQKALEFIPSDQQNEMVRELDGHVLKCVKDQNGNHVVQKCIECVQPQSLQFIIDAFKGQVFALSTHP
B4: Human VPS41: human HRt interacting partner, GenBank U87309, SEQ ID NO:46/47 (protein, UniProt P49754 1-854, looked up)
Vacuolar protein …: MAEAEEQETGSLEESTDESEEEESEEEPKLKYERLSNGVTEILQKDAASCMTVHDKFLALGTHYGKVYLLDVQGNITQKFDVSPVKINQISLDESGEHMGVCSEDGKVQVFGLYSGEEFHETFDCPIKIIAVHPHFVRSSCKQFVTGGKKLLLFERSWMNRWKSAVLHEGEGNIRSVKWRGHLIAWANNMGVKIFDIISKQRITNVPRDDISLRPDMYPCSLCWKDNVTLIIGWGTSVKVCSVKERHASEMRDLPSRYVEIVSQFETEFYISGLAPLCDQLVVLSYVKEISEKTEREYCARPRLDIIQPLSETCEEISSDALTVRGFQENECRDYHLEYSEGESLFYIVSPRDVVVAKERDQDDHIDWLLEKKKYEEALMAAEISQKNIKRHKILDIGLAYINHLVERGDYDIAARKCQKILGKNAALWEYEVYKFKEIGQLKAISPYLPRGDPVLKPLIYEMILHEFLESDYEGFATLIREWPGDLYNNSVIVQAVRDHLKKDSQNKTLLKTLAELYTYDKNYGNALEIYLTLRHKDVFQLIHKHNLFSSIKDKIVLLMDFDSEKAVDMLLDNEDKISIKKVVEELEDRPELQHVYLHKLFKRDHHKGQRYHEKQISLYAEYDRPNLLPFLRDSTHCPLEKALEICQQRNFVEETVYLLSRMGNSRSALKMIMEELHDVDKAIEFAKEQDDGELWEDLILYSIDKPPFITGLLNNIGTHVDPILLIHRIKEGMEIPNLRDSLVKILQDYNLQILLREGCKKILVADSLSLLKKMHRTQMKGVLVDEENICESCLSPILPSDAAKPFSVVVFHCRHMFHKECLPMPSMNSAAQFCNICSAKNRGPGSAILEMKK
B5: Human CGI-106 protein: human HRt interacting partner, GenBank AF151864, SEQ ID NO:28/29 (protein, listed as Homo sapiens)
chain: DEDTEGFGVPRHDPLPDPLKVPPPLPDPSSICMVDPEMLPPKTARQTENVSRTRKPLARPNSRAAAPKATPVAAAKTKGLAGGDRASRPLSARSEPSEKGGRAPLSRKSSTPKTATRGPSGSASSRPGVSATPPKSPVYLDLAYLPSGSSAHLVDEEFFQRVRALCYVISGQDQRKEEGMRAVLDALLASKQHWDRDLQVTLIPTFDSVAMHTWYAETHAR
B6: Human pumilio(PUMH1): human HRt interacting partner, GenBank D43951, SEQ ID NO:44/45 (protein, UniProt Q14671 2-1186, looked up)
Pumilio homolog 1: SVACVLKRKAVLWQDSFSPHLKHHPQEPANPNMPVVLTSGTGSQAQPQPAANQALAAGTHSSPVPGSIGVAGRSQDDAMVDYFFQRQHGEQLGGGGSGGGGYNNSKHRWPTGDNIHAEHQVRSMDELNHDFQALALEGRAMGEQLLPGKKFWETDESSKDGPKGIFLGDQWRDSAWGTSDHSVSQPIMVQRRPGQSFHVNSEVNSVLSPRSESGGLGVSMVEYVLSSSPGDSCLRKGGFGPRDADSDENDKGEKKNKGTFDGDKLGDLKEEGDVMDKTNGLPVQNGIDADVKDFSRTPGNCQNSANEVDLLGPNQNGSEGLAQLTSTNGAKPVEDFSNMESQSVPLDPMEHVGMEPLQFDYSGTQVPVDSAAATVGLFDYNSQQQLFQRPNALAVQQLTAAQQQQYALAAAHQPHIGLAPAAFVPNPYIISAAPPGTDPYTAGLAAAATLGPAVVPHQYYGVTPWGVYPASLFQQQAAAAAAATNSANQQTTPQAQQGQQQVLRGGASQRPLTPNQNQQGQQTDPLVAAAAVNSALAFGQGLAAGMPGYPVLAPAAYYDQTGALVVNAGARNGLGAPVRLVAPAPVIISSSAAQAAVAAAAASANGAAGGLAGTTNGPFRPLGTQQPQPQPQQQPNNNLASSSFYGNNSLNSNSQSSSLFSQGSAQPANTSLGFGSSSSLGATLGSALGGFGTAVANSNTGSGSRRDSLTGSSDLYKRTSSSLTPIGHSFYNGLSFSSSPGPVGMPLPSQGPGHSQTPPPSLSSHGSSSSLNLGGLTNGSGRYISAAPGAEAKYRSASSASSLFSPSSTLFSSSRLRYGMSDVMPSGRSRLLEDFRNNRYPNLQLREIAGHIMEFSQDQHGSRFIQLKLERATPAERQLVFNEILQAAYQLMVDVFGNYVIQKFFEFGSLEQKLALAERIRGHVLSLALQMYGCRVIQKALEFIPSDQQNEMVRELDGHVLKCVKDQNGNHVVQKCIECVQPQSLQFIIDAFKGQVFALSTHPYGCRVIQRILEHCLPDQTLPILEELHQHTEQLVQDQYGNYVIQHVLEHGRPEDKSKIVAEIRGNVLVLSQHKFASNVVEKCVTHASRTERAVLIDEVCTMNDGPHSALYTMMKDQYANYVVQKMIDVAEPGQRKIVMHKIRPHIATLRKYTYGKHILAKLEKYYMKNGVDLGPICGPPNGII
B7: Human alpha-tubulin: human HRt interacting partner, GenBank AF141348, SEQ ID NO:50 (protein, listed as Homo sapiens)
chain: QSLGLLDQNPHLAQELRPQIQELLHSEHLGPSELEAPAPGGSSEDKGGLQPPDSKDADTPMTLPKGSTEQDAASPEKEKMNPLEQYERKVNASVPRGFPFHSSEIQRDELAPAGTGVSREAVSGLLIMGAGGGSLIVLSMLLLRRKKPYGAISHGVVEVDPMLTLEEQQLRELQRHGYENPTYRFLEERP
B8: Human quinone oxidoreductase(NQO2): human HRt interacting partner, GenBank J02888, SEQ ID NO:40/41 (protein, listed as Homo sapiens)
chain: PDSNAIRPQLVPHHRTTQQEAGGTMTSATQSARAFSRAPPQTSLWPALPSSLELELLQRQPQQASLHIEVAGPIAQTRETHRELYVFIFLL

The experiment has as its target T1, mouse HRt (hairless protein aa 490-1182). Description: Yeast two-hybrid screen of BD-HRt against human brain cDNA library in AD vector, lacZ coloration on QDO-Xgal plates. It is filed as cell-based. The conditions noted are these: BD-HRt(mouse) x human brain cDNA library in AD-vector. From the text: The present example provides for Hairless Protein (HR) interacting partners (HR-IP) using the yeast two-hybrid technology. […] Yeast cells expressing BD-HRt are mated with yeast cells pretransformed with human brain cDNA library in the activation domain (AD) vector.
Cloning of HRt into GAL4 binding domain (BD) yeast two-hybrid (Y2H) vector: The HRt insert from pET32a-HRt is excised as an Eco RI-Xho I fragment (there is a unique Xho I site just adjacent to HRt insert) and inserted at the Eco RI-Sal I sites of Y2H-BD vector pGBKT7 (Catalog No. K1612-B; a component of Matchmaker two-hybrid System 3 (Catalog No. K1612-1) BD Biosciences Clontech, Palo Alto, Calif.) to obtain pGBKT7-HRt in which HRt is fused in-frame to GAL 4 DNA BD (this plasmid is also designated BD-HRt).
Pretransformed human brain […] cDNA Library Screen for HRt interaction partners: Pretransformed human brain […] high-complexity GAL4 cDNA library that has already been amplified and introduced into yeast strain Y187 (MATα) is used to screen for HRt interacting proteins. […] The library host strain Y187 provides a third reporter gene (lacZ) for optional quantification of signal strength. The protocol as described in Clontech user manual (PT3183-1) is used. Briefly, the library is mixed with PJ69-2A strain that has been transformed with the BD-HRt plasmid in YPD medium containing adenine hemisulfate (0.004%) and kanamycin (0.005%) and incubated for 20-24 h at 30° C. The next day, the mating mixture is plated on Leu, Trp, His TDO that selects for two-hybrid interactions, and then the positive clones are screened for growth on Leu, Trp, His, Ade QDO, which is a more stringent condition for interaction. Colonies that grew well on QDO are also screened for lacZ expression by streaking on QDO-Xgal plates. Based on a visual assessment of colonies for the intensity of blue color, the clones are classified into high (H), medium (M), low (L) or very low (VL) categories.
The positive clones are expected to contain an AD-IP (interacting partner) that interacts with BD-HRt. To characterize IP, the sequence of IP is determined and matched to the human genome database. For this purpose, total DNA is isolated from the positive clones and PCR amplified with […] AD LD (long distance)-insert screening amplimers (Catalog No.9103-1; BD Biosciences Clontech, PaloAlto, Calif.). Reaction is conducted in 50 μl volume for 35 cycles using the conditions recommended with the Advantage2 PCR kit (Catalog No. K1910-1; BD Biosciences Clontech, PaloAlto, Calif.).
For B1, the “XGAL (rate and intensity of coloration of colonies on Xgal)” value (from here on “XGAL”) was “M (M = Medium blue in 3-5 days)”.
The value for B2 was “M (M = Medium blue in 3-5 days)”; that for B3 was “M (M = Medium blue in 3-5 days)”; that for B4 was “M (M = Medium blue in 3-5 days)”.
With B5, the “XGAL” value was “M (M = Medium blue in 3-5 days)”.
Turning to B6, the “XGAL” value was “M (M = Medium blue in 3-5 days)”.
The value for B7 was “L (L = Low blue in 5-7 days)”.
Consider B8, for which the “XGAL” value is recorded as “M (M = Medium blue in 3-5 days)”.

(Values after patent publication US20040086945A1, “Hairless protein-interacting partner complexes and methods thereto” (The Procter & Gamble Company, priority 2002, published 2004).)
